Results from patent publication US20180185450A1 (Sanofi, published 2018).
Numbered stars: 1 amine (or outer) side, 2 acyl side, 3 side chain; on linkers, the order of the positions; unused ones are H or OH. Square brackets hold non-standard residues; d marks the D form. Side chains are listed from the residue outwards. Ends that are not written are not given here. γGlu = O=C(O)[C@H](CCC(=O)[*:2])N[*:1]; x53 = not defined here; Aib = CC(C)(N)C(=O)O

Key:
human glucagon receptor = human glucagon receptor (human, UniProt P47871 26-477); assay: cell-based or functional assay
human GLP-1 receptor = human GLP-1 receptor (human, UniProt P43220 24-463); assay: cell-based or functional assay

human glucagon receptor, sequence (P47871 26-477): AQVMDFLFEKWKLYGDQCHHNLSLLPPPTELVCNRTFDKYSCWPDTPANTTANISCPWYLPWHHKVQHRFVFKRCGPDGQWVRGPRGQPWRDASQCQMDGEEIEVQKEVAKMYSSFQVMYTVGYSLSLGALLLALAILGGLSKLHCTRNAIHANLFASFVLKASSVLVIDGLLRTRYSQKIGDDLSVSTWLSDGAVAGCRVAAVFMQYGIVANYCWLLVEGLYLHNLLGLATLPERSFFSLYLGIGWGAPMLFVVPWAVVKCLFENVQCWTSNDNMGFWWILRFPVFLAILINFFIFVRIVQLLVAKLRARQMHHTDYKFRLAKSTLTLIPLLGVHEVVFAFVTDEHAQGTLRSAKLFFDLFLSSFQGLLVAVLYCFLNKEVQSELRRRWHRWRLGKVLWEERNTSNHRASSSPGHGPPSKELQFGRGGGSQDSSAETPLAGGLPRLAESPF

| Binder | EC50 hGlucagon-R (cAMP) (human glucagon receptor) [pM] | EC50 hGLP-1R (cAMP) (human GLP-1 receptor) [pM] |
| --- | --- | --- |
| HXQGTFTSDLSKQKDSRRAQDFIEWLKNGGPSSGAPPPS (dSer at 2; K(γE-x72) at 14; C-terminal NH2) [SEQ ID NO: 91] | 8.9 | 15.1 |
| HXQGTFTSDLSKQKDSRRAQDFIEWLKNGGPSSGAPPPS (dSer at 2; K(γE-x53) at 14; C-terminal NH[(CH2)15-CH3]) [SEQ ID NO: 106] | 10.5 | 210 |
| HXQGTFTSDLSKQKDSRRAQDFIEWLKNAGPSSGAPPPS (dSer at 2; K(γE-x53) at 14; C-terminal NH2) [SEQ ID NO: 93] | 2.6 | 10.7 |
| HXQGTFTSDLSKQKDSQAAQDFIEWLKRAGPSSGAPPPS (dSer at 2; K(γE-x53) at 14; C-terminal NH2) [SEQ ID NO: 124] | 8.4 | 3 |
| HXQGTFTSDLSKQKDSRRAQDFIEWLKNTGPSSGAPPPS (dSer at 2; K(γE-x53) at 14; C-terminal NH2) [SEQ ID NO: 92] | 1 | 26 |
| HXQGTFTSDLSKQKESRRAQDFIEWLKNGGPSSGAPPPK (dSer at 2; K(x53) at 14; C-terminal NH2) [SEQ ID NO: 114] | 31.1 | 62.3 |
| HXQGTFTSDLSKQKESRRAQDFIEWLKRXGPSSGAPPPS (dSer at 2; K(γE-x53) at 14; dAla at 29; C-terminal NH2) [SEQ ID NO: 126] | 6.8 | 6.6 |
| HXQGTFTSDLSKQKESRRAQDFIEWLKNAGPSSGAPPPS (dSer at 2; K(γE-x53) at 14; C-terminal NH2) [SEQ ID NO: 95] | 9.2 | 20.6 |
| HXQGTFTSDLSKQKDSRRAQDFIEWLKNGGPSSGAPPPS (dSer at 2; K(γE-x53) at 14; C-terminal NH[(CH2)13-CH3]) [SEQ ID NO: 110] | 7.2 | 213 |
| HXQGTFTSDLSKQKDSRRAQDFIEWLKNGGPSSGAPPPS (dSer at 2; K(γE-x53) at 14; C-terminal N(diethyl)) [SEQ ID NO: 101] | 1.7 | 9.8 |
| HXQGTFTSDLSKQKDSRRAQDFIEWLKNGGPSSGAPPPS (dSer at 2; K(γE-x53) at 14; C-terminal NH(benzyl)) [SEQ ID NO: 99] | 2.6 | 15.9 |
| HXQGTFTSDLSKQKDSRRAQDFIEWLKNGGPSSGAPPPS (dSer at 2; K(γE-x53) at 14; C-terminal NH(CH2-CF3)) [SEQ ID NO: 103] | 1.7 | 10.1 |
| HXQGTFTSDLSKQKESRRAQDFIEWLKSGGPSSGAPPPS (dSer at 2; K(γE-x53) at 14; C-terminal NH2) [SEQ ID NO: 129] | 4.1 | 14.8 |
| HXQGTFTSDLSKQKESRAAXLFIEWLKNGGPSSGAPPPS (dSer at 2; K(x53) at 14; Aib at 20; C-terminal NH2) [SEQ ID NO: 122] | 156 | 24.9 |
| HXQGTFTSDLSKQKDSRRAQDFIEWLKNXGPSSGAPPPS (dSer at 2; K(γE-x53) at 14; dAla at 29; C-terminal NH2) [SEQ ID NO: 94] | 2.1 | 5.2 |
| HXQGTFTSDLSKQKESRRAQDFIEWLKNTGPSSGAPPPS (dSer at 2; K(γE-x53) at 14; C-terminal NH2) [SEQ ID NO: 96] | 3.4 | 74.3 |
| HXQGTFTSDLSKQKDSRRAQDFIEWLKNGGPSSGAPPPS (dSer at 2; K(γE-x53) at 14; C-terminal NH(tert.butyl)) [SEQ ID NO: 100] | 2 | 13.5 |
| HXQGTFTSDLSKQKDSRRAQDFIEWLKNGGPSSGAPPPS (dSer at 2; K(γE-x53) at 14; C-terminal NH[(CH2-CH2-O)24-CH2-CH2-COOH]) [SEQ ID NO: 105] | 1 | 7.9 |
| HXQGTFTSDLSKQKESRRAQDFIEWLKNGGPSSGAPPPK (dSer at 2; K(γE-x53) at 14; C-terminal NH2) [SEQ ID NO: 113] | 5.4 | 11.4 |
| HXQGTFTSDLSKQKDSRRAQDFIEWLKNGGPSSGAPPPS (dSer at 2; K(γE-x53) at 14; C-terminal NH[(CH2)17-CH3]) [SEQ ID NO: 109] | 28.6 | 430 |
| HXQGTFTSDLSKQKDSKAAQDFIEWLKAGGPSSGAPPPS (dSer at 2; K(γE-γE-x53) at 14; C-terminal NH2) [SEQ ID NO: 140] | 1.5 | 1.3 |

| Binder | EC50 hGlucagon-R (cAMP) (human glucagon receptor) [pM] | EC50 hGLP-1R (cAMP) (human GLP-1 receptor) [pM] |
| --- | --- | --- |
| HXQGTFTSDLSKQKESRRAQDFIEWLKNGGPSSGAPPPS (dSer at 2; K(γE-x53) at 14; C-terminal NH2) [SEQ ID NO: 116] | 3.6 | 6 |
| HXQGTFTSDLSKQKDSRRAQDFIEWLKNGGPSSGAPPPS (dSer at 2; K(γE-x53) at 14; C-terminal NH[(CH2-CH2-O)4-CH2-CH2-COOH]) [SEQ ID NO: 104] | 1.1 | 6.5 |
| HXQGTFTSDLSKQKESRRAQDFIEWLKRGGPSSGAPPPS (dSer at 2; K(γE-x53) at 14; C-terminal NH2) [SEQ ID NO: 127] | 9.4 | 14.7 |
| HXQGTFTSDLSKQKDSRRAQDFIEWLKNGGPSSGAPPPS (dSer at 2; K(γE-x53) at 14; C-terminal NH[(CH2)14-CH3]) [SEQ ID NO: 108] | 9 | 197 |
| HXQGTFTSDLSKQKDSRRAQDFIEWLKSGGPSSGAPPPS (dSer at 2; K(γE-x53) at 14; C-terminal NH2) [SEQ ID NO: 128] | 1.6 | 6.2 |
| HXQGTFTSDLSKQKDSRRAQDFIEWLKNGGPSSGAPPPS (dSer at 2; K(γE-x53) at 14; C-terminal NH[(CH2)12-OH]) [SEQ ID NO: 107] | 37.8 | 188 |
| HXQGTFTSDLSKQKDSRRAXDFIEWLKNGGPSSGAPPPS (dSer at 2; K(γE-x53) at 14; Aib at 20; C-terminal NH2) [SEQ ID NO: 118] | 4.3 | 15.3 |
| HXQGTFTSDLSKQKESXAAQDFIEWLKAGGPSSGAPPPS (dSer at 2; K(γE-x70) at 14; Aib at 17; C-terminal NH2) [SEQ ID NO: 11] | 25.7 | 3.6 |
| HXQGTFTSDLSKQKESRRAXDFIEWLKNGGPSSGAPPPS (dSer at 2; K(x53) at 14; Aib at 20; C-terminal NH2) [SEQ ID NO: 119] | 41.2 | 30.8 |
| HXQGTFTSDLSKQKESRAAXLFIEWLKNGGPSSGAPPPS (dSer at 2; K(γE-x53) at 14; Aib at 20; C-terminal NH2) [SEQ ID NO: 121] | 23.7 | 6.1 |
| HXQGTFTSDLSKQKDSRRAQDFIEWLKNGGPSSGAPPPS (dSer at 2; K(γE-x53) at 14; C-terminal N(morpholin)) [SEQ ID NO: 102] | 1.1 | 7.2 |
| HXQGTFTSDLSKQKESXAAQDFIEWLKAGGPSSGAPPPS (dSer at 2; K(γE-x53) at 14; Aib at 17; C-terminal NH2) [SEQ ID NO: 14] | 94.7 | 4.6 |
| HXQGTFTSDLSKQKDSQAAQDFIEWLKRGGPSSGAPPPS (dSer at 2; K(γE-x53) at 14; C-terminal NH2) [SEQ ID NO: 123] | 9.7 | 2.6 |
| HXQGTFTSDLSKQKDSRRAQDFIEWLKNGGPSSGAPPPS (dSer at 2; K(γE-x53) at 14; C-terminal NH(pyrrolidin)) [SEQ ID NO: 98] | 1.4 | 9.6 |
| H[Aib]QGTFTSDLSKQK([γGlu-x53])ESRRAQDFIEWLKNGGPSSGAPPPS-NH2 (reading uncertain) [SEQ ID NO: 117] | 16.5 | 3.8 |
| H[Aib]QGTFTSDLSKQK([γGlu-x53])ES[Aib]AAQDFIEWLKAGGPSSGAPPPS-NH2 (reading uncertain) [SEQ ID NO: 13] | 281 | 3.1 |
| HXQGTFTSDLSKQKESXAAXLFIEWLKAGGPSSGAPPPS (dSer at 2; K(γE-x53) at 14; Aib at 17; Aib at 20; C-terminal NH2) [SEQ ID NO: 12] | 263 | 4.6 |
| HXQGTFTSDLSKQKESXAAQLFIEWLKAGGPSSGAPPPS (dSer at 2; K(GABA-x70) at 14; Aib at 17; C-terminal NH2) [SEQ ID NO: 131] | 24.9 | 9.1 |
| HXQGTFTSDLSKQKESRRAQDFIEWLKNGGPSSGAPPPSK (dSer at 2; K(γE-x53) at 14; C-terminal NH2) [SEQ ID NO: 111] | 2.5 | 8.1 |
| HXQGTFTSDLSKQKESRRAQDFIEWLKNGGPSSGAPPPSK (dSer at 2; K(x53) at 14; C-terminal NH2) [SEQ ID NO: 112] | 21.1 | 33.6 |
| HXHGTFTSDLSKQKDSKAAQLFIEWLKAXGPSSGAPPPS (dSer at 2; K(γE-X70) at 14; dAla at 29; C-terminal NH2) [SEQ ID NO: 138] | 9.2 | 5.5 |
